# Reference: patent publication US20220119492A1 (MEDIKINE, published 2022)
# Bridge positions count the residues as written; N and C are the ends. Ends that are not written are not given here.
# T1: human IL-2Rβ (CD122 protein, Fc Tag) (27-239) (human, UniProt P14784 27-239)
# T1 construct: range 27-239; Bought protein; also called hu-IL-2Rβ subunit; IL-2Rβ subunit; not shown: Fc tag of the bought protein
# T1 sequence (looked up): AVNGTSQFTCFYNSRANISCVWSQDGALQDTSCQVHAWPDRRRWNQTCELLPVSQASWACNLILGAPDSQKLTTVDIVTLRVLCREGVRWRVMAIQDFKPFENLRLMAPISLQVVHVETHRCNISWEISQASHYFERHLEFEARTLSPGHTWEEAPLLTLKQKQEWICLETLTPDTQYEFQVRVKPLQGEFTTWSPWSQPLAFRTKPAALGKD
# T2: human IL-2Rγc (CD132 protein, Fc Tag) (23-254) (human, UniProt P31785 23-254)
# T2 construct: range 23-254; Bought protein; also called hu-IL-2Rγc subunit; IL-2Rγc subunit; not shown: Fc tag of the bought protein
# T2 sequence (looked up): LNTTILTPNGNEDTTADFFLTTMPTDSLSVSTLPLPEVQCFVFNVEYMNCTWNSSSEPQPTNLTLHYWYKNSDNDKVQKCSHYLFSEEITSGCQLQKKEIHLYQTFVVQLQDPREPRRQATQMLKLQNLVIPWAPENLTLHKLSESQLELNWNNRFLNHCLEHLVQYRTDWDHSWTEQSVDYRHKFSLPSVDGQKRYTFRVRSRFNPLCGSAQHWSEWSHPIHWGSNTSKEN
# Tests used:
# [1] = target: T1, human IL-2Rβ (CD122 protein, Fc Tag) …; assay: phage ELISA competition
# Summary of the method: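 In this competitive binding ELISA, test ligands compete with a phage tracer for human IL-2Rβ-Fc, and IC50 is calculated from the absorbance signal over the ligand dilution series. A 50 μL volume of phage tracer was added without washing and left for 45 min at 4° C. TMB was used to detect bound phage for 1 to 15 min at 25° C, after which stop solution was added and absorbance was read at 450 nm.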
# [2] = target: T1, human IL-2Rβ (CD122 protein, Fc Tag) …; assay: competition ELISA, peptide tracer
# Procedure: (§1) Binding of Fc fusions to IL-2Rβ and IL-2Rγc were measured using a competition binding ELISA with biotinylated peptide/NeutrAvidin-HRP tracer. ELISA plate was prepared as described in Example 27.
# (§2) The plate was washed 4 times with PT (1×PBS, 0.05% Tween® 20) buffer. Fifty (50) μL of IL-2R ligands serially diluted in PBT was added to appropriate wells then incubated at 4° C. for 1 hr.
# (§3) At the appropriate time, the precomplexed bn-peptide/NA-HRP tracer was diluted to 2-fold its predetermined binding EC80 (typically 30 to 10 nM) without washing. fifty (50) μL of bn-peptide/NA-HRP tracer was added to each well and incubated at 4° C. for 45 mins.
# [3] = target: T3, cynomolgus monkey IL-2Rβ subunit (cynomolgus monkey); assay: competition ELISA, peptide tracer
# T3 construct: Bought protein; also called cyno-IL-2Rβ subunit
# T3 sequence (Q38J85 whole entry): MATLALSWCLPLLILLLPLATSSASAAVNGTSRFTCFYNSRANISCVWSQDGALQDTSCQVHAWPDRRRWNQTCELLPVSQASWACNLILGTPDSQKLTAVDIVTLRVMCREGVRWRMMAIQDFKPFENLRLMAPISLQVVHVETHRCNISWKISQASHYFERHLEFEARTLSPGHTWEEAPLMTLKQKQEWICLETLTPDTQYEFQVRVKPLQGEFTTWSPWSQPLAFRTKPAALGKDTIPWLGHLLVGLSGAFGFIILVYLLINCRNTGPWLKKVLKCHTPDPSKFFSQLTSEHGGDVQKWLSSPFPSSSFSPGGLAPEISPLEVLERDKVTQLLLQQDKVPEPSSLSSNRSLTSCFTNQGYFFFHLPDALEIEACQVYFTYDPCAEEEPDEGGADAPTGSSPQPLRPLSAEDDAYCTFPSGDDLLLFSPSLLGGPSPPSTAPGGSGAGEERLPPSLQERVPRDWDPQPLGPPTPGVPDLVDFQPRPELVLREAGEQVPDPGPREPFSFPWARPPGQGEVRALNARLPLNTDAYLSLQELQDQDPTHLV
# Procedure: as §1, §2, §3
# [4] = target: T4, cynomolgus monkey Rγc subunit (cynomolgus monkey); assay: competition ELISA, peptide tracer
# T4 construct: also called cyno-IL-2Rγc subunit
# Procedure: as §1, §2, §3
# [5] = target: T2, human IL-2Rγc (CD132 protein, Fc Tag) …; assay: competition ELISA, peptide tracer
# Procedure: as §1, §2, §3
Binder,IC50 [2] [µM],IC50 [3] [µM],further results
WYPCWGELCDLD [SEQ ID NO 2891],–,–,IC50 [1]: < 100 µM
WPCWAALGELCDLD [SEQ ID NO 2888],–,–,IC50 [1]: < 100 µM
WPCWALGELCDLD [SEQ ID NO 2889],–,–,IC50 [1]: < 100 µM
EFWGWQCWQEPLGWSCDLEWMD [SEQ ID NO 2883],–,–,IC50 [1]: < 100 µM
GGELLVDCFKVKVGELCDLFFG [SEQ ID NO 3114],< 100,< 100,–
GGRYVHDCFIAQVGDLCDLFLH [SEQ ID NO 3137],< 100,< 100,–
GGELLVDCFKVKVGELCDLF [SEQ ID NO 3122],< 100,< 100,–
LVDCFKVKVGELCDLFFGGG [SEQ ID NO 3126],< 100,< 100,–
ELLVDCFKVKVGELCDLFFGGG [SEQ ID NO 3124],< 100,< 100,–
VDCFKVKVGELCDLFFGGG [SEQ ID NO 3127],< 100,< 100,–
WPCWLGELCDLD [SEQ ID NO 2890],–,–,IC50 [1]: < 100 µM
GGRYVHDCFIAQVGDLCDLFLHGG [SEQ ID NO 3147],< 100,< 100,–
GGRYVHDCFIGQVGDLCALFLHGG [SEQ ID NO 3204],< 100,< 100,–
GGRYVHDCFIAQAGDLCDLFLHGG [SEQ ID NO 3173],< 100,< 100,–
GGRYAHDCFIAQVGDLCDLFLHGG [SEQ ID NO 3179],< 100,< 100,–
GGRYVHDCFIAAVGDLCDLFLHGG [SEQ ID NO 3172],< 100,< 100,–
GGRYVHDCFIAQVADLCDLFLHGG [SEQ ID NO 3174],< 100,< 100,–
GGRYVHDCFIAQVGDLCDLFAHGG [SEQ ID NO 3183],< 100,< 100,–
GGRYVHDCFIAQVGDLCALFLHGG [SEQ ID NO 3186],< 100,< 100,–
SEQ ID NO 4175 (peptide) peptide: GGRYVHDCFIAQVGDLCDLFLHGGGGSGGGGSGGGGSGGGGSGGVVCQDWEGVELCWQGG,< 100,< 100,IC50 [4]: < 100 µM; IC50 [5]: < 100 µM
WYPCWIARVGELCDLEEGPVNRGGGGGSGGVVCQDWEGVELCWQGG [SEQ ID NO 4172],< 100,< 100,IC50 [4]: < 100 µM; IC50 [5]: < 100 µM
GGWYPCWMAQLGELCDLDGGGGSGGVVCQDWEGVELCWQGG [IL-2Rβγc ligand having SEQ ID NO: 1263],–,–,binding result [2]: binds
SEQ ID NO 4173 (peptide) peptide: GGGELLVDCFKVKVGELCDLFFGGGGGSGGGGSGGVVCQDWEGVELCWQGG,< 100,< 100,IC50 [4]: < 100 µM; IC50 [5]: < 100 µM
DGSWYTCWFTQLGEWCEQDDAK [SEQ ID NO 2882],–,–,IC50 [1]: < 100 µM
VHDCFIAQVGDLCDLF [SEQ ID NO 2887],–,–,IC50 [1]: < 100 µM
LVDCFKVKVGELCDLF (disulfide 4-13 (inferred)) [SEQ ID NO 2886],–,–,IC50 [1]: < 100 µM

# Further lines, with some results ahead:
IC50 [2] [µM],IC50 [3] [µM],Binder,further results
< 100,< 100,GGELLVDCFKVKVGELCDLFF [SEQ ID NO 3107],–
< 100,< 100,GGELLVDCFRVRVGELCDLFFGGG [SEQ ID NO 3128],–
< 100,< 100,SEQ ID NO 4176 (peptide) peptide: GGRYVHDCFIAQVGDLCDLFLHPAPAPAPAPAPAPAPAGVVCQDWEGVELCWQGG,IC50 [4]: < 100 µM; IC50 [5]: < 100 µM
< 100,< 100,SEQ ID NO 4174 (peptide) peptide: GGGELLVDCFKVKVGELCDLFFGGGGGSGGGGSGGGGSGGVVCQDWEGVELCWQGG,IC50 [4]: < 100 µM; IC50 [5]: < 100 µM
< 100,< 100,GGRYVHDCFIAQVGDLCDAFLHGG [SEQ ID NO 3185],–
< 100,< 100,GGRYVHDCFAAQVGDLCDLFLHGG [SEQ ID NO 3170],–
< 100,< 100,GGRAVHDCFIAQVGDLCDLFLHGG [SEQ ID NO 3178],–
< 100,< 100,GGRYVHDCFIGAVGDLCDLFLHGG [SEQ ID NO 3200],–
< 100,< 100,GGAYVHDCFIAQVGDLCDLFLHGG [SEQ ID NO 3177],–
< 100,< 100,GGRYVADCFIAQVGDLCDLFLHGG [SEQ ID NO 3180],–
< 100,< 100,GGAYVHDCFIGQVGDLCDLFLHGG [SEQ ID NO 3202],–
< 100,< 100,GGRYVHDCFIAQVGDACDLFLHGG [SEQ ID NO 3176],–
< 100,< 100,GGRYVHDCFIAQVGDLCDLFLAGG [SEQ ID NO 3182],–
< 100,< 100,GGRYVHDCFIGQVGDLCDLFLHGG [SEQ ID NO 3171],–
< 100,< 100,LLVDCFKVKVGELCDLFFGGG [SEQ ID NO 3125],–
